Reference: US20190381086A1, “INHIBITION OF NEDDYLATION USING GLYCYL-tRNA SYNTHETASE INHIBITORS” (The Scripps Research Institute, priority 2015, published 2019)

Target: T1, Ubc12^N8 (Homo sapiens, UniProt P61081+Q15843, C111S)
T1 construct: DEN1 which processes NEDD8 to its mature, 76-amino acid form; made in house; conjugate made enzymatically in vitro
Experiment: Biolayer interferometry, immobilized Ubc12^N8
Format: binding
Conditions: for Kd: binding to immobilized Ubc12^N8
Method: V5-tagged GlyRS and Flag-tagged Ubc12-C111S genes were co-transfected to HEK293 cell for the assay. FIG. 3B: Strong binding of Ubc12^N8 to GlyRS as determined by biolayer interferometry. A.U. indicates Arbitrary Unit. Binding analysis to immobilized GST-GlyRS was carried out with the same concentration (62.5 nM) of NEDD8, Ubc12, or Ubc12^N8 at 30°. FIG. 3C: Biolayer interferometry analysis confirms that GlyRS binding to Ubc12^N8. Binding analysis to immobilized Ubc12^N8 was carried out with a range of concentrations of full-length (8.07 nM-129 nM) GlyRS. FIG. 3D: Structural model of the GlyRS-Ubc12^N8 interaction generated using Patchdock (a server for molecular docking). FIGS. 3E-G: Biolayer interferometry analysis confirms that F84-L93 and I232-M238 regions, but not Insertion 1, are important for GlyRS binding to Ubc12^N8. Binding analysis to immobilized Ubc12^N8 was carried out with a range of concentrations (1.25-20 μg/mL) of ΔF84-L93 (8.16-130 nM), ΔI232-M238 (8.13-130 nM), and Alnsertion 1 (62.5-125 nM) GlyRS. FIG. 3H: Over-expression of ΔI232-M238 GlyRS in HEK293 cells cannot promote NEDD8 conjugation of Ubc12. HEK293 cells were transfected with pcDNA6V5 vectors containing the indicated gene fragment with a V5-tag.
The conjugated Ubc12 was prepared by mixing APPBP1/UBA3 (2 μM), Ubc12 (C111S; the mutant would form a stable ester linkage to NEDD8) (70 μM), and His-SUMO-tagged NEDD8 (100 μM). The mixture was incubated at 25° C. for 16 h in 50 mM NaOAc pH 5.5, 50 mM NaCl, 1 mM MgCl2, and 2 mM ATP. Ubc12^N8 was then purified by gel filtration chromatography using a Superdex 200 column. The fractions containing only Ubc12^N8 were concentrated and used for the study. The purity of proteins was examined by SDS-PAGE to be above 95%.
The dissociation constants (Kd) were obtained with biolayer interferometry by using an Octet QK system (ForteBio, Menlo Park, Calif., USA). Samples or buffer were dispensed into 96-well plates (Millipore, Billerica, Mass.) at 200 μL per well. Operating temperature was maintained at 30° C. Proteins were diluted into kinetic buffer (PBS with 0.1% BSA and 0.002% Tween-20) and immobilized on either anti-GST or Ni-NTA sensor tips. The other proteins were diluted using the same buffer into a range of different concentrations. Assays with Ubc12^N8 were carried out using the acid kinetic buffer (50 mM NaOAc pH 5.5, 50 mM NaCl, 0.1% BSA, and 0.002% Tween-20). The raw data were processed by subtraction to reference cells and then aligned with baselines. The dissociation constants Kd were obtained by fitting the processed data using the 1:1 model in the Octet analysis software with R^2>0.99.
Indeed, GlyRS can bind to Ubc12^N8 in HEK293 cells as detected by co-immunoprecipitation (FIG. 3a). […] To quantify the difference, Ubc12^N8 was enzymatically made and purified, and its binding affinity to GlyRS was measured using biolayer interferometry. […] Therefore, it is possible that GlyRS enhances neddylation by protecting reaction intermediate Ubc12^N8.
Using the crystal structure of human GlyRS16 and of Ubc12N8 (adapted from its complex with substrate cullin and E3), a model was generated for the GlyRS-Ubc12^N8 interaction using the Patchdock algorithm (http://bioinfo3d.cs.tau.ac.il/PatchDock/). […]

T1 sequence (P61081 whole entry C111S): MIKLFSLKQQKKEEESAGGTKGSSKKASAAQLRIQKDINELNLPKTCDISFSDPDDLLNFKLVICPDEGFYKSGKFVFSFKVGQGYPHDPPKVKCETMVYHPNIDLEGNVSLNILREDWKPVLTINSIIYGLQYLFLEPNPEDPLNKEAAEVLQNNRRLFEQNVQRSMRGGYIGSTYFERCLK
T1 sequence (Q15843 1-76 limits assumed): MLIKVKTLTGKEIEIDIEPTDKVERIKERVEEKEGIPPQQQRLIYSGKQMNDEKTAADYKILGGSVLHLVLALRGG

binding of GlyRS to Ubc12^N8 (immobilized Ubc12^N8, FIG. 3f)	Kd [nM]	fold decrease of binding of GlyRS to Ubc12^N8 (versus full-length GlyRS) [fold]	Molecule
abolished the binding completely	–	–	A232-238: GlyRS deletion mutant, I232-M238 replaced by GG (protein) MDGAGAEEVLAPLRLAVRQQGDLVRKLKEDKAPQVDVDKAVAELKARKRVLEAKELALQPKDDIVDRAKMEDTLKRRFFYDQAFAIYGGVSGLYDFGPVGCALKNNIIQTWRQHFIQEEQILEIDCTMLTPEPVLKTSGHVDKFADFMVKDVKNGECFRADHLLKAHLQKLMSDKKCSVEKKSEMESVLAQLDNYGQQELADLFVNYNVKSPITGNDLSPPVSFNLMFKTFGGPGYLRPETAQGIFLNFKRLLEFNQGKLPFAAAQIGNSFRNEISPRSGLIRVREFTMAEIEHFVDPSEKDHPKFQNVADLHLYLYSAKAQVSGQSARKMRLGDAVEQGVINNTVLGYFIGRIYLYLTKVGISPDKLRFRQHMENEMAHYACDCWDAESKTSYGWIEIVGCADRSCYDLSCHARATKVPLVAEKPLKEPKTVNVVQFEPSKGAIGKAYKKDAKLVMEYLAICDECYITEMEMLLNEKGEFTIETEGKTFQLTKDMINVKRFQKTLYVEEVVPNVIEPSFGLGRIMYTVFEHTFHVREGDEQRTFFSFPAVVAPFKCSVLPLSQNQEFMPFVKELSEALTRHGVSHKVDDSSGSIGRRYARTDEIGVAFGVTIDFDTVNKTPHTATLRDRDSMRQIRAEISELPSIVQDLANGNITWADVEARYPLFEGQETGKKETIEE
–	27 ± 0.4	9	A84-93: GlyRS deletion mutant, F84-L93 replaced by GGG (protein) MDGAGAEEVLAPLRLAVRQQGDLVRKLKEDKAPQVDVDKAVAELKARKRVLEAKELALQPKDDIVDRAKMEDTLKRRFFYDQAGGGYDFGPVGCALKNNIIQTWRQHFIQEEQILEIDCTMLTPEPVLKTSGHVDKFADFMVKDVKNGECFRADHLLKAHLQKLMSDKKCSVEKKSEMESVLAQLDNYGQQELADLFVNYNVKSPITGNDLSPPVSFNLMFKTFIGPGGNMPGYLRPETAQGIFLNFKRLLEFNQGKLPFAAAQIGNSFRNEISPRSGLIRVREFTMAEIEHFVDPSEKDHPKFQNVADLHLYLYSAKAQVSGQSARKMRLGDAVEQGVINNTVLGYFIGRIYLYLTKVGISPDKLRFRQHMENEMAHYACDCWDAESKTSYGWIEIVGCADRSCYDLSCHARATKVPLVAEKPLKEPKTVNVVQFEPSKGAIGKAYKKDAKLVMEYLAICDECYITEMEMLLNEKGEFTIETEGKTFQLTKDMINVKRFQKTLYVEEVVPNVIEPSFGLGRIMYTVFEHTFHVREGDEQRTFFSFPAVVAPFKCSVLPLSQNQEFMPFVKELSEALTRHGVSHKVDDSSGSIGRRYARTDEIGVAFGVTIDFDTVNKTPHTATLRDRDSMRQIRAEISELPSIVQDLANGNITWADVEARYPLFEGQETGKKETIEE
–	3.21 ± 0.17	–	GlyRS: human Glycyl-tRNA synthetase, recombinant full-length protein (SEQ ID NO: 2) (protein, listed as Homo sapiens) MDGAGAEEVLAPLRLAVRQQGDLVRKLKEDKAPQVDVDKAVAELKARKRVLEAKELALQPKDDIVDRAKMEDTLKRRFFYDQAFAIYGGVSGLYDFGPVGCALKNNIIQTWRQHFIQEEQILEIDCTMLTPEPVLKTSGHVDKFADFMVKDVKNGECFRADHLLKAHLQKLMSDKKCSVEKKSEMESVLAQLDNYGQQELADLFVNYNVKSPITGNDLSPPVSFNLMFKTFIGPGGNMPGYLRPETAQGIFLNFKRLLEFNQGKLPFAAAQIGNSFRNEISPRSGLIRVREFTMAEIEHFVDPSEKDHPKFQNVADLHLYLYSAKAQVSGQSARKMRLGDAVEQGVINNTVLGYFIGRIYLYLTKVGISPDKLRFRQHMENEMAHYACDCWDAESKTSYGWIEIVGCADRSCYDLSCHARATKVPLVAEKPLKEPKTVNVVQFEPSKGAIGKAYKKDAKLVMEYLAICDECYITEMEMLLNEKGEFTIETEGKTFQLTKDMINVKRFQKTLYVEEVVPNVIEPSFGLGRIMYTVFEHTFHVREGDEQRTFFSFPAVVAPFKCSVLPLSQNQEFMPFVKELSEALTRHGVSHKVDDSSGSIGRRYARTDEIGVAFGVTIDFDTVNKTPHTATLRDRDSMRQIRAEISELPSIVQDLANGNITWADVEARYPLFEGQETGKKETIEE
–	4.32 ± 0.12	–	Insertion 1: GlyRS with Insertion 1 deleted (F147-F224 replaced by GSGSGG) (protein) MDGAGAEEVLAPLRLAVRQQGDLVRKLKEDKAPQVDVDKAVAELKARKRVLEAKELALQPKDDIVDRAKMEDTLKRRFFYDQAFAIYGGVSGLYDFGPVGCALKNNIIQTWRQHFIQEEQILEIDCTMLTPEPVLKTSGHVDKFADGSGSGGNLMFKTFIGPGGNMPGYLRPETAQGIFLNFKRLLEFNQGKLPFAAAQIGNSFRNEISPRSGLIRVREFTMAEIEHFVDPSEKDHPKFQNVADLHLYLYSAKAQVSGQSARKMRLGDAVEQGVINNTVLGYFIGRIYLYLTKVGISPDKLRFRQHMENEMAHYACDCWDAESKTSYGWIEIVGCADRSCYDLSCHARATKVPLVAEKPLKEPKTVNVVQFEPSKGAIGKAYKKDAKLVMEYLAICDECYITEMEMLLNEKGEFTIETEGKTFQLTKDMINVKRFQKTLYVEEVVPNVIEPSFGLGRIMYTVFEHTFHVREGDEQRTFFSFPAVVAPFKCSVLPLSQNQEFMPFVKELSEALTRHGVSHKVDDSSGSIGRRYARTDEIGVAFGVTIDFDTVNKTPHTATLRDRDSMRQIRAEISELPSIVQDLANGNITWADVEARYPLFEGQETGKKETIEE
